The record followed here is IntAct's records for PubMed 22056926.

B1: Cell division protein ZapB (Escherichia coli (strain K12)), P0AF36 (parent)
chain: MTMSLEVFEKLEAKVQQAIDTITLLQMEIEELKEKNNSLSQEVQNAQHQREELERENNHLKEQQNGWQERLQALLGRMEEV
partner: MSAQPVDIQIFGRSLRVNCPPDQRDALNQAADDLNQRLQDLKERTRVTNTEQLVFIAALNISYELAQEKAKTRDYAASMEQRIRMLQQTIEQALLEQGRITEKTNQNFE

In this experiment the parent is B1. The conditions noted are these: with zapa_ecoli zapA.
With MTMSLEVAAKLEAKVQQAIDTITLLQMEIEELKEKNNSLSQEVQNAQHQREELERENNHLKEQQNGWQERLQALLGRMEEV, the “effect of a mutation on the interaction” value was “decreasing interaction strength”.

In the case of MTMAAEVFEKLEAKVQQAIDTITLLQMEIEELKEKNNSLSQEVQNAQHQREELERENNHLKEQQNGWQERLQALLGRMEEV, the “effect of a mutation on the interaction” value is reported as “decreasing interaction strength”.

For the variant MTMSLEVFEAAEAKVQQAIDTITLLQMEIEELKEKNNSLSQEVQNAQHQREELERENNHLKEQQNGWQERLQALLGRMEEV, the “effect of a mutation on the interaction” value is recorded as “decreasing interaction strength”.
